Key:
Experiment in all cases: ITC
[1] = molecular target: FusB-CTD wild type (C-terminal domain of the TonB homologue FusB of Pectobacterium carotovorum LMG2410) (Pectobacterium carotovorum LMG2410)
[2] = molecular target: FusB-CTD D322N (Pectobacterium carotovorum LMG2410)
[3] = molecular target: FusB-CTD R241A (Pectobacterium carotovorum LMG2410)
[4] = molecular target: FusB-CTD R241K (Pectobacterium carotovorum LMG2410)

Substance | Kd [1] [mM] | Kd [2] [mM] | Kd [3] [mM] | Kd [4] [mM]
SpFer E93A/E94A (from UniProt P00221 51-147) (natural protein) | 31.3 |  |  | 
FusANTR-GFP D53A (domain or fragment) | 31.6 | 31.8 |  | 
SpFer F64Y (natural protein) | 30.7 |  |  | 
FusANTR-GFP wild type (GFP fusion construct containing the N-terminal region, residues 21-66, of FusA) (domain or fragment) |  | 0.0094 | 38.8 | 25.3

Source: publication doi:10.1101/2025.10.16.682781
